# Measured values as given in the supplement of paper PMC10567573.
# B1: PTPN9 (parent)
# chain: IDFLRVVRNQQSLAVSNMGARSKG
# B2: CAMK2D (parent)
# chain: IVRLHDSISEEGFHYLVFDLVTGG
# Variants of: B1
# Assay: protein stability index of a GFP-peptide fusion (GPS, HEK-293T) (PSI 1-6); higher = more stable
# Conditions: c terminus: a fixed tail appended
# 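Note: lentivirally expressed fusions sorted by FACS into six bins by GFP to DsRed ratio, PSI derived from sequencing read proportions per bin multiplied by bin number.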
row,Variant,protein stability index
1,S16R,2.78
2,S16M,1.83
3,S16V,1.9
4,S16A,3.26
5,S16Q,2.78
6,S16D,2.48
7,S16G,2.35
8,S16H,2.15
9,S16L,1.89
10,S16P,2.54
11,S16E,2.64
12,S16F,2.31
13,S16W,1.46
14,S16I,1.74
15,S16N,2.52
16,S16K,2.59
17,S16C,1.99
18,S16T,2.2
19,S16Y,2.38
20,M18W,2.03
21,M18R,3.35
22,M18I,2.13
23,M18N,3.06
24,M18V,2.32
25,M18F,2
26,M18E,3.28

row,Variant,protein stability index
1,M18S,3.13
2,M18C,2.51
3,M18A,3.02
4,M18L,2.67
5,M18Y,2.04
6,M18Q,2.73
7,M18D,3.05
8,M18G,2.85
9,M18P,2.57
10,M18H,2.91
11,M18T,3.23
12,M18K,2.87
13,G19M,2.3
14,G19K,2.58
15,G19Q,2.96
16,G19V,2.13
17,G19R,1.97
18,G19N,2.72
19,G19L,2.12
20,G19W,2.66
21,G19F,2.94
22,G19I,2.19
23,G19E,2.91
24,G19S,2.08
25,G19D,2.35
26,G19A,2.47

row,Variant,protein stability index
1,G19C,2.24
2,G19T,2.27
3,G19P,2.83
4,G19Y,2.16
5,G19H,2.57
6,A20N,2.78
7,A20F,2.1
8,A20Y,2.44
9,A20P,2.57
10,A20T,2.06
11,A20S,2.75
12,A20R,2.47
13,A20G,2.43
14,A20I,1.99
15,A20H,2.38
16,A20M,2.32
17,A20L,2.21
18,A20W,2.32
19,A20V,2.42
20,A20D,2.57
21,A20K,2.69
22,A20Q,2.25
23,A20C,2.6
24,A20E,1.92
25,S22Y,2.16
26,S22E,3.13

row,Variant,protein stability index
1,S22F,2.24
2,S22M,1.81
3,S22Q,2.86
4,S22C,2.51
5,S22H,2.55
6,S22T,2.23
7,S22G,2.27
8,S22I,2.05
9,S22P,2.4
10,S22N,2.57
11,S22K,2.46
12,S22W,2.4
13,S22V,2.03
14,S22R,2.64
15,S22A,2.2
16,S22L,2.07
17,S22D,2.69
18,V15G,2.83
19,V15M,2.61
20,V15R,2.31
21,V15T,2.69
22,V15A,2.82
23,V15L,2.41
24,V15I,1.97
25,V15P,2.36
26,V15D,2.52

row,Variant,protein stability index
1,V15K,2.62
2,V15N,2.86
3,V15S,2.49
4,V15Y,2.15
5,V15H,2.56
6,V15Q,2.79
7,V15C,2.28
8,V15E,2.69
9,V15F,2.18
10,V15W,2.25
11,R21S,2.37
12,R21F,2.45
13,R21P,2.15
14,R21H,2.67
15,R21K,2.4
16,R21E,2.3
17,R21G,3.16
18,R21I,2.14
19,R21T,1.66
20,R21D,2.54
21,R21L,1.7
22,R21M,1.77
23,R21C,1.83
24,R21Q,2.18
25,R21V,2
26,R21Y,2.08

row,Variant,protein stability index
1,R21W,2.18
2,R21N,2.65
3,R21A,2.6
4,N17W,2.14
5,N17R,2.45
6,N17S,2.74
7,N17D,2.63
8,N17C,2.1
9,N17T,2.71
10,N17L,2.22
11,N17I,2.09
12,N17K,2.24
13,N17M,1.65
14,N17Q,2.42
15,N17P,2.27
16,N17F,2.12
17,N17E,3.08
18,N17V,2
19,N17Y,1.93
20,N17A,2.7
21,N17H,2.9
22,N17G,2.21
23,A14S,2.23
24,A14N,2.4
25,A14T,2.64
26,A14V,2.22

row,Variant,protein stability index
1,A14R,2.13
2,A14Y,2.04
3,A14K,2.13
4,A14W,2.39
5,A14L,1.76
6,A14P,2.7
7,A14M,2.66
8,A14Q,2.09
9,G24D,2.75
10,G24P,2.2
11,G24Q,2.72
12,G24E,2.95
13,G24T,2.63
14,G24W,1.76
15,G24S,2.28
16,G24Y,3.1
17,G24N,2.46
18,G24R,2.48
19,G24F,1.84
20,G24I,2.3
21,G24H,2.27
22,G24A,2.55
23,G24C,1.84
24,G24M,2.18
25,G24L,2.18
26,G24K,3.05

row,Variant,protein stability index
1,G24V,2.45
2,K23D,2.36
3,K23R,2.4
4,K23Y,1.92
5,K23V,1.72
6,K23L,1.72
7,K23M,1.91
8,K23G,1.96
9,K23A,2.01
10,K23H,1.75
11,K23C,1.88
12,K23I,1.72
13,K23S,1.68
14,K23W,1.59
15,K23T,1.32
16,K23N,2.02
17,K23E,2.32
18,K23F,1.51
19,K23Q,3.29
20,K23P,2.09

# Variants of: B2
# Assay: as above
# Conditions: c terminus: a fixed tail appended
row,Variant,protein stability index
1,L20N,2.25
2,L20C,3.9
3,L20I,3.09
4,L20E,2.05
5,L20H,1.35
6,L20P,1.86
7,L20G,1.93
8,L20S,1.45
9,G12T,3.32
10,G12Y,3.96
11,G12S,3.25
12,E11F,3.42
13,E11Q,2.06
14,E11I,1.56
15,E11Y,3.26
16,E11N,3.39
17,E11D,3.32
18,E11P,2.13
19,G24R,2.09
20,G24P,3.4
21,G24W,2.09
22,G24L,2.13

row,Variant,protein stability index
1,G24Q,2.89
2,G24V,3.44
3,G24F,1.57
4,V21W,4.26
5,V21N,4.11
6,V21F,3.33
7,V21T,2.88
8,V21G,3.19
9,V21Q,2.38
10,V21D,3.2
11,D19I,2.4
12,D19G,2.15
13,D19V,2.75
14,D19T,1.62
15,I8Q,1.69
16,I8R,1.65
17,I8P,3.04
18,I8H,3.29
19,I8K,2.4
20,E10A,3.84
21,D6N,1.95
22,D6C,2.66

row,Variant,protein stability index
1,D6M,2.4
2,D6T,4.86
3,L4T,1.29
4,L4H,2.53
5,L4R,1.62
6,L4D,1.8
7,L4A,2.4
8,L4N,1.87
9,H14D,1.85
10,H14A,2.32
11,H14M,2.25
12,H14K,2.2
13,H14Y,2.71
14,H14C,2.29
15,F13T,3.34
16,F13Y,3.07
17,F13L,2.02
18,F13P,1.08
19,F13K,1.43
20,F13W,2.18
21,F13N,2.2
22,F13E,2.6

row,Variant,protein stability index
1,V2L,2.69
2,V2I,3.28
3,V2K,1.51
4,H5D,2.94
5,H5P,3.91
6,L16T,1.21
7,L16F,2.76
8,L16Y,2.98
9,L16G,2.17
10,L16P,1.74
11,L16A,3.09
12,L16Q,2.04
13,L16C,2.49
14,V17I,2.58
15,V17G,3.58
16,V17L,1
17,V17R,2.13
18,V17D,1.46
19,V17S,3.19
20,V17K,2.56
21,V17Y,3.27
22,G23H,2.88

row,Variant,protein stability index
1,G23Y,4.01
2,G23R,2.53
3,G23T,3.2
4,G23Q,2.59
5,G23V,2.43
6,G23K,2.19
7,G23A,3.32
8,R3G,2.41
9,R3E,2.25
10,R3H,3.12
11,R3P,2.28
12,F18Y,1.43
13,F18C,1.32
14,F18L,2.51
15,F18A,2.33
16,F18S,2
17,F18K,2.17
18,Y15A,2.98
19,Y15P,1.75
20,Y15D,1.89
21,Y15K,2.76
22,Y15E,1.7

row,Variant,protein stability index
1,Y15Q,1.58
2,Y15S,1.06
3,Y15W,2.7
4,S7T,3.19
5,S7G,1.96
6,S7L,2.56
7,S7Q,2.4
8,T22S,2.67
9,T22M,2.02
10,T22Y,3.62
11,T22K,3.31
12,S9Q,4.38
13,S9Y,3.58
14,S9D,2.36
15,S9L,4.27
16,S9M,3.39
17,S9K,2.84
18,S9E,3.35
19,I1N,1.75
20,I1V,2.13
21,I1S,3.07
22,I1H,3.43
